Results published in patent US20240261333A1 (published 2024).

How the values were obtained:
CAPRIN1 = target: T1, CAPRIN1 (human, UniProt Q14444 2-709); test: co-IP with mouse anti-FLAG from lysate of cells overexpressing C-FLAG B3GNT2, then mass spectrometry
T1 construct: Identified by mass spectrometry in the co-IP; also called NP_005889.3 (+1)
T1 sequence (looked up): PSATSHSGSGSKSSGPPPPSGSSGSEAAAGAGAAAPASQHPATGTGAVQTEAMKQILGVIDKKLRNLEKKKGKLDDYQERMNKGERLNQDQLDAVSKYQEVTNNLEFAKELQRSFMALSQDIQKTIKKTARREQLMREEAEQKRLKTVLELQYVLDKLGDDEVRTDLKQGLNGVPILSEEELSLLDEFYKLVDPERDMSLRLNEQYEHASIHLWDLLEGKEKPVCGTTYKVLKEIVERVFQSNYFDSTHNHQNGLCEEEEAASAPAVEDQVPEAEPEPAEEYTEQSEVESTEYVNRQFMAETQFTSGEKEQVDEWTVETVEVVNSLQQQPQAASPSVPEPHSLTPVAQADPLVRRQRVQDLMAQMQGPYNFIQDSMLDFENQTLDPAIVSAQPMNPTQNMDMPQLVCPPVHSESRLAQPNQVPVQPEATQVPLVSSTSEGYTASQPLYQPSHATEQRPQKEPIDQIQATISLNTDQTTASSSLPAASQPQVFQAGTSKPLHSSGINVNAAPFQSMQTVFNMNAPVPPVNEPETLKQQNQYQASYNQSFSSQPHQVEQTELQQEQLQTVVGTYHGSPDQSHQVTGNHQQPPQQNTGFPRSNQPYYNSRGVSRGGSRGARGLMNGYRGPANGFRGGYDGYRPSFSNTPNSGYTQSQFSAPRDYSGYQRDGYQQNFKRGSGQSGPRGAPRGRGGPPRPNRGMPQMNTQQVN
Experimental: (§1) Cells were plated in 10-cm cell culture dishes and grown to 60-80% confluency. For each condition, two biological replicates were harvested for co-IP. Cells were washed with PBS and 4 mL of lysis buffer (20 mM HEPES, 1% Triton X-100, 150 mM NaCl, 1 mM EDTA, and 10% glycerol) containing protease inhibitor cocktail was added. Cells were scraped and lysate was incubated at 4° C. under rotary agitation for 1 h. Lysate was centrifuged at 14,000×g for 10 min at 4° C. Supernatant was transferred to a new tube and an aliquot was taken as the input. […] For Western blots, 10 μg/mL Chicken Anti-FLAG (Aves labs ET-DY100) and IgY control (R&D Systems AB-101-C) antibodies were biotinylated (Thermo Fisher Scientific 90407) and added to the respective conditions. Lysates with antibodies were incubated at 4° C. under rotary agitation overnight. For each mL of lysate, 50 μL of Pierce Protein A/G Magnetic Beads (Mass spectrometry; Thermo Fisher Scientific 88803) or Pierce Streptavidin Magnetic Beads (Western blot; Thermo Fisher Scientific 88817) was washed twice with lysis buffer. Lysates with antibodies were added to the beads and incubated at 4° C. under rotary agitation for 4 h. Beads were washed with lysis buffer 3 times and resuspended in lysis buffer for storage.
(§2) Magnetic beads were resuspended in 100 mM Tris pH 7.8, reduced, alkylated and digested with trypsin at 37° ° C. overnight. This solution was subjected to solid phase extraction to concentrate the peptides and remove unwanted reagents followed by injection onto a Shimadzu HPLC with fraction collector. Eight fractions were collected and after concentration were injected on a Waters NanoAcquity HPLC equipped with a self-packed Aeris 3 μm C18 analytical column 0.075 mm by 20 cm, (Phenomenex). Peptides were eluted using standard reverse-phase gradients. The effluent from the column was analyzed using a Thermo Orbitrap Elite mass spectrometer (nanospray configuration) operated in a data dependent manner for 54 minutes. The resulting fragmentation spectra were correlated against the known database using Proteome Discover 1.4 (Thermo Fisher Scientific).

CASC3 = target: T2, CASC3 (human, UniProt O15234 1-703); test: as above
T2 construct: Identified by mass spectrometry in the co-IP; also called NP_031385.2
T2 sequence (O15234 whole entry): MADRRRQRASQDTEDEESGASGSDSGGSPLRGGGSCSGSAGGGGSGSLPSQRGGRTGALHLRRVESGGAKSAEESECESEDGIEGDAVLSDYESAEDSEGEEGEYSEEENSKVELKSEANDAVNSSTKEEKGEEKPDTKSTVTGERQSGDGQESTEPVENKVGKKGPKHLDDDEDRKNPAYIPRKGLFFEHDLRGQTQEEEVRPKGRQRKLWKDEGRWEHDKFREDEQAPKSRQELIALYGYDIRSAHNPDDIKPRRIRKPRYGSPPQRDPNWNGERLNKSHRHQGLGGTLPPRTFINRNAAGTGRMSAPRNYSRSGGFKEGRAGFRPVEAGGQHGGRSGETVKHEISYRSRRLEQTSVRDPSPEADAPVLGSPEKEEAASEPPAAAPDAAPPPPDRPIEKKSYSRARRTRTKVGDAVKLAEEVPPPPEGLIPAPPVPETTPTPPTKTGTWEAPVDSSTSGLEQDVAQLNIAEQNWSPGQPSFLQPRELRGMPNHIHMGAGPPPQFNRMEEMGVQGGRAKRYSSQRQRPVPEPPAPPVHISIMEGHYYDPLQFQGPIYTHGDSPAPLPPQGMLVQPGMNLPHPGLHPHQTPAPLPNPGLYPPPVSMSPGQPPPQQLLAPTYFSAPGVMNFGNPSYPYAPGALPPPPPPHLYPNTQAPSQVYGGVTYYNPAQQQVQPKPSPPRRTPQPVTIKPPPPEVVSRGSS
Experimental: as §1, §2

CPSF6 = target: T3, CPSF6 (human, UniProt Q16630-2 1-588, limits assumed); test: as above
T3 construct: Identified by mass spectrometry in the co-IP; also called NP_001287876.1 (+3)
T3 sequence (looked up): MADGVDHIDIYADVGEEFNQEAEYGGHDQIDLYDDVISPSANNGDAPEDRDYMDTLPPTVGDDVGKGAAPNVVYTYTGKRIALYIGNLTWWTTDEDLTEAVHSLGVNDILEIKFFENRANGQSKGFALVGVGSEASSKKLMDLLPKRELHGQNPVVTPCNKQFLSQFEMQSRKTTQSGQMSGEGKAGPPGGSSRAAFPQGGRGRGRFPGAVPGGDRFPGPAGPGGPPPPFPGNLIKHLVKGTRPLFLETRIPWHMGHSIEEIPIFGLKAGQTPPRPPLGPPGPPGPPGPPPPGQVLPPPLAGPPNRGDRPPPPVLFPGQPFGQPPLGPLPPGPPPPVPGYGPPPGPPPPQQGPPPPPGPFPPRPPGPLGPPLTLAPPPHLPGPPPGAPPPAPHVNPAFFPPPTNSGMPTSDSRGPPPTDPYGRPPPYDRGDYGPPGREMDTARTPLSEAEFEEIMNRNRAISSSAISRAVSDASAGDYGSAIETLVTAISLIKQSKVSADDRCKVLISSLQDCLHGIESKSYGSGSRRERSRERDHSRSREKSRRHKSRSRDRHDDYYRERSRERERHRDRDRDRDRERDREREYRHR
Experimental: as §1, §2

ANXA2 = target: T4, ANXA2 (human, UniProt P07355-2 1-357, limits assumed); test: as above
T4 construct: Identified by mass spectrometry in the co-IP; also called NP_001002858.1 (+1)
T4 sequence (P07355 other isoform, or with tags, fused parts or gaps limits assumed): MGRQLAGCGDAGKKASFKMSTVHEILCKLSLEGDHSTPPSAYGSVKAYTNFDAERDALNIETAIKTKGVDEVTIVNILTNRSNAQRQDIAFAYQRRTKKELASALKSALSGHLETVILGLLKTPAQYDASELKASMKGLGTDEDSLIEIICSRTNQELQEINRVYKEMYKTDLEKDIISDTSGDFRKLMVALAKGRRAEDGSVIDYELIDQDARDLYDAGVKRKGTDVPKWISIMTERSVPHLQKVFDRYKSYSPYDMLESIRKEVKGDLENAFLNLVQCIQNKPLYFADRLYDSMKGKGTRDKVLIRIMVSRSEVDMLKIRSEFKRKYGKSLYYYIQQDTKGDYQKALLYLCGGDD
Experimental: as §1, §2

KHDRBS1 = target: T5, KHDRBS1 (human, UniProt Q07666 1-443); test: as above
T5 construct: Identified by mass spectrometry in the co-IP; also called NP_006550.1
T5 sequence (Q07666 whole entry): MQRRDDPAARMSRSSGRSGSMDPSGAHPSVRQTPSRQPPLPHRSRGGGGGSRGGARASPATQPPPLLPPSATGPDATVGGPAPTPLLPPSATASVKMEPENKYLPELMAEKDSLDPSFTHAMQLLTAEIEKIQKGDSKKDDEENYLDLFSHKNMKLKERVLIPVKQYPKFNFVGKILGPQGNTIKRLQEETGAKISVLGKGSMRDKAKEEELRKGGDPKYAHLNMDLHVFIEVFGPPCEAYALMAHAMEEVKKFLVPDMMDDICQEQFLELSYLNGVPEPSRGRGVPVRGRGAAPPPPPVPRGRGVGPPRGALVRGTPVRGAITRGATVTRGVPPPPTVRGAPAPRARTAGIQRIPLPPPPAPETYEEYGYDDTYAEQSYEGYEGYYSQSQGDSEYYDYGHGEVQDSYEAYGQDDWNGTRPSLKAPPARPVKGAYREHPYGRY
Experimental: as §1, §2

VIM = target: T6, VIM (human, UniProt P08670 2-466); test: as above
T6 construct: Identified by mass spectrometry in the co-IP; also called NP_003371.2
T6 sequence (P08670 2-466 limits assumed): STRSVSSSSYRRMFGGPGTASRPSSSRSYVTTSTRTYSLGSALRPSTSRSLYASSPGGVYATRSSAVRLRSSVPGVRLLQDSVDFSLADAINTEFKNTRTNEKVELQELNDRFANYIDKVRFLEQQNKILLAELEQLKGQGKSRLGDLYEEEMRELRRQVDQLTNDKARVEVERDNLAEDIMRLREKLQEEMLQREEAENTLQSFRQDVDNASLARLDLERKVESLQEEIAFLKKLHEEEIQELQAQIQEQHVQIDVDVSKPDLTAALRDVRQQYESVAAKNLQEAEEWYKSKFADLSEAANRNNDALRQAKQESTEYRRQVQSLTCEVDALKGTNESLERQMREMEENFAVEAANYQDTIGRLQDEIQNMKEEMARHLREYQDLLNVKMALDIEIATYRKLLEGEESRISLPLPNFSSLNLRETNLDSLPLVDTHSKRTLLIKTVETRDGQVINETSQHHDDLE
Experimental: as §1, §2

PABPC1 = target: T7, PABPC1 (human, UniProt P11940 1-636); test: as above
T7 construct: Identified by mass spectrometry in the co-IP; also called NP_002559.2
T7 sequence (P11940 whole entry): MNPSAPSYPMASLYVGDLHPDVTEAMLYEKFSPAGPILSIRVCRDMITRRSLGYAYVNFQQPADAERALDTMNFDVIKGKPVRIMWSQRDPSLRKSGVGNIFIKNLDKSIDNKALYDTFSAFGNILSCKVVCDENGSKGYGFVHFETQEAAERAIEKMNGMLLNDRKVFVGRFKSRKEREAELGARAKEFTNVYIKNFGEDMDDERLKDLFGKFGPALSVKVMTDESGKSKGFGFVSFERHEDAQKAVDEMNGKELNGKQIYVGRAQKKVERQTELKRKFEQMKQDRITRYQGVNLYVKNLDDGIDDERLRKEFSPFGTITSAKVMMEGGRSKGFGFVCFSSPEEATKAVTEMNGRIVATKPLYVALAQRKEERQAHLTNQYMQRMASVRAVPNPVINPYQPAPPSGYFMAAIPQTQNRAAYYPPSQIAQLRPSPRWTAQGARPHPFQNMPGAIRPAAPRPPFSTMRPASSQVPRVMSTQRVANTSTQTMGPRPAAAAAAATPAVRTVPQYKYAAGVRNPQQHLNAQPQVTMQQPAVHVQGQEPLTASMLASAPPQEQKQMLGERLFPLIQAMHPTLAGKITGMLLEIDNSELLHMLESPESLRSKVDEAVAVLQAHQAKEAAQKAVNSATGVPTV
Experimental: as §1, §2

[1] = target: T8, FLAG tagged B3GNT2 (N- or C-terminal FLAG tag) (human, UniProt Q9NY97 1-397); test: co-IP of FLAG tagged B3GNT2 from A375 lysate, Western blot
T8 construct: The text speaks of the co-IP of B3GNT2 without separating the N-FLAG and C-FLAG constructs, so both are held as one molecule; also called N-FLAG B3GNT2; C-FLAG B3GNT2; not shown: FLAG tag at the N- or the C-terminus
T8 sequence (looked up): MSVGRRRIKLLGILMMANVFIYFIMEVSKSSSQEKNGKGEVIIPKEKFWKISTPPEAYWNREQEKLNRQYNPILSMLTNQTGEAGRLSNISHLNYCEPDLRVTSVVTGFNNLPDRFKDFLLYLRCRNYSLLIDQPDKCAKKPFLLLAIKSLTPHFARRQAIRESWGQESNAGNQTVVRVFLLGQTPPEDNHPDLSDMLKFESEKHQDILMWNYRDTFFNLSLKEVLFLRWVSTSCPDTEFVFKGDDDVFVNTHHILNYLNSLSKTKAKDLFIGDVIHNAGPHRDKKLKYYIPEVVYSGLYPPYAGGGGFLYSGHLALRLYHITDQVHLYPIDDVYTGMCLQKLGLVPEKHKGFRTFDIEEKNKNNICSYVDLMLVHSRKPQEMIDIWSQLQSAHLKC
Experimental: as §1

B1: C-terminal FLAG tagged B3GNT2 (enzyme, human, UniProt Q9NY97 1-397, looked up)
chain: MSVGRRRIKLLGILMMANVFIYFIMEVSKSSSQEKNGKGEVIIPKEKFWKISTPPEAYWNREQEKLNRQYNPILSMLTNQTGEAGRLSNISHLNYCEPDLRVTSVVTGFNNLPDRFKDFLLYLRCRNYSLLIDQPDKCAKKPFLLLAIKSLTPHFARRQAIRESWGQESNAGNQTVVRVFLLGQTPPEDNHPDLSDMLKFESEKHQDILMWNYRDTFFNLSLKEVLFLRWVSTSCPDTEFVFKGDDDVFVNTHHILNYLNSLSKTKAKDLFIGDVIHNAGPHRDKKLKYYIPEVVYSGLYPPYAGGGGFLYSGHLALRLYHITDQVHLYPIDDVYTGMCLQKLGLVPEKHKGFRTFDIEEKNKNNICSYVDLMLVHSRKPQEMIDIWSQLQSAHLKC
notes: FLAG-tagged ORF overexpressed in A375 cells; bait of the co-IP with mouse anti-FLAG; also called C-FLAG B3GNT2; C-term flag; not shown: C-terminal FLAG tag
Q: Which results are given for B1?
A: co-IP mass spectrometry count (C-term flag) (CAPRIN1): 6; co-IP mass spectrometry count (C-term flag) (CASC3): 0; co-IP mass spectrometry count (C-term flag) (CPSF6): 35; co-IP mass spectrometry count (C-term flag) (ANXA2): 15; co-IP mass spectrometry count (C-term flag) (KHDRBS1): 9; co-IP mass spectrometry count (C-term flag) (VIM): 411; co-IP mass spectrometry count (C-term flag) (PABPC1): 41

B2: IFNGR2, endogenous in A375 melanoma cells (receptor, human, UniProt P38484 22-337, looked up)
chain: APPDPLSQLPAPQHPKIRLYNAEQVLSWEPVALSNSTRPVVYQVQFKYTDSKWFTADIMSIGVNCTQITATECDFTAASPSAGFPMDFNVTLRLRAELGALHSAWVTMPWFQHYRNVTVGPPENIEVTPGEGSLIIRFSSPFDIADTSTAFFCYYVHYWEKGGIQQVKGPFRSNSISLDNLKPSRVYCLQVQAQLLWNKSNIFRVGHLSNISCYETMADASTELQQVILISVGTFSLLSVLAGACFFLVLKYRGLIKYWFHTPPSIPLQIEEYLKDPTQPILEALDKDSSPKDDVWDSVSIISFPEKEQEDVLQTL
modifications: poly-LacNAc glycosylation added by B3GNT2 (sites not given)
notes: whole, on cells; In the co-IP it comes from the lysate of A375 cells
Q: Does B2 bind [1]?
A: Result: binds

B3: CD58, endogenous in A375 melanoma cells (ligand, human, UniProt P19256 29-250, looked up)
chain: FSQQIYGVVYGNVTFHVPSNVPLKEVLWKKQKDKVAELENSEFRAFSSFKNRVYLDTVSGSLTIYNLTSSDEDEYEMESPNITDTMKFFLYVLESLPSPTLTCALTNGSIEVQCMIPEHYNSHRGLIMYSWDCPMEQCKRNSTSIYFKMENDLPQKIQCTLSNPLFNTTSSIILTTCIPSSGHSRHRYALIPIPLAVITTCIVLYMNGILKCDRKPDRTNSN
modifications: poly-LacNAc glycosylation added by B3GNT2 (sites not given)
notes: whole, on cells; On fixed A375 cells in flow cytometry; In the co-IP it comes from the lysate of these cells
Q: Does B3 bind [1]?
A: Result: binds

B4: CD70, endogenous in A375 melanoma cells (ligand, human, UniProt P32970 1-193, looked up)
chain: MPEEGSGCSVRRRPYGCVLRAALVPLVAGLVICLVVCIQRFAQAQQQLPLESLGWDVAELQLNHTGPQQDPRLYWQGGPALGRSFLHGPELDKGQLRIHRDGIYMVHIQVTLAICSSTTASRHHPTTLAVGICSPASRSISLLRLSFHQGCTIASQRLTPLARGDTLCTNLTGTLLPSRNTDETFFGVQWVRP
modifications: poly-LacNAc glycosylation added by B3GNT2 (sites not given)
notes: as for B2
Q: Does B4 bind [1]?
A: Result: binds

B5: MICB, endogenous in A375 melanoma cells (ligand, human, UniProt Q29980 23-383, looked up)
chain: AEPHSLRYNLMVLSQDGSVQSGFLAEGHLDGQPFLRYDRQKRRAKPQGQWAENVLGAKTWDTETEDLTENGQDLRRTLTHIKDQKGGLHSLQEIRVCEIHEDSSTRGSRHFYYDGELFLSQNLETQESTVPQSSRAQTLAMNVTNFWKEDAMKTKTHYRAMQADCLQKLQRYLKSGVAIRRTVPPMVNVTCSEVSEGNITVTCRASSFYPRNITLTWRQDGVSLSHNTQQWGDVLPDGNGTYQTWVATRIRQGEEQRFTCYMEHSGNHGTHPVPSGKALVLQSQRTDFPYVSAAMPCFVIIIILCVPCCKKKTSAAEGPELVSLQVLDQHPVGTGDHRDAAQLGFQPLMSATGSTGSTEGT
modifications: poly-LacNAc glycosylation added by B3GNT2 (sites not given)
notes: as for B3
Q: Does B5 bind [1]?
A: Result: binds

B6: FAS, endogenous in A375 melanoma cells (receptor, human, UniProt P25445 26-335, looked up)
chain: QVTDINSKGLELRKTVTTVETQNLEGLHHDGQFCHKPCPPGERKARDCTVNGDEPDCVPCQEGKEYTDKAHFSSKCRRCRLCDEGHGLEVEINCTRTQNTKCRCKPNFFCNSTVCEHCDPCTKCEHGIIKECTLTSNTKCKEEGSRSNLGWLCLLLLPIPLIVWVKRKEVQKTCRKHRKENQGSHESPTLNPETVAINLSDVDLSKYITTIAGVMTLSQVKGFVRKNGVNEAKIDEIKNDNVQDTAEQKVQLLRNWHQLHGKKEAYDTLIKDLKKANLCTLAEKIQTIILKDITSDSENSNFRNEIQSLV
modifications: poly-LacNAc glycosylation added by B3GNT2 (sites not given)
notes: whole, on cells; In the co-IP it comes from the lysate of A375 cells; also called Fas receptor
Q: Does B6 bind [1]?
A: Result: binds
